Source: patent US20240307488A1, “ANNEXIN TO INHIBIT BACTERIA” (priority 2023, published 2024)

Columns and labels:
E. coli strain BL21(DE3) = experiment: dark field light microscopy of antibiotic-driven bacterial filament formation and filament length measurement; assay type: cell-based
From the text: Use of dark field light microscopy to monitor antibiotic-driven bacterial filament formation.
In bright field light microscopy, the filaments formed by bacteria in the presence of beta-lactam antibiotics are difficult to distinguish from “floaters” in the eyes of the microscopist. […] The light micrographs provided herein were all obtained by darkfield light microscopy. […] Therefore, transmission electron microscopy was also used in some cases for visualization of cell ultrastructure.
Darkfield light microscopy of bacterial cultures was performed with a Nikon Labophot microscope (Nikon Instruments, Melville, New York) with a dark field condenser (dry) and an e plan40×/0.65 Nikon objective.
of the inducer IPTG (Isopropyl β-d-1-thiogalactopyranoside). However, protein expression from this plasmid can have significant baseline expression without the inducer. […] Accordingly, all of the imaging and experiments described in this report were performed without adding the inducer, which avoided these problems.
Five ml precultures in LB medium with 200 μg/ml ampicillin were seeded with colonies from LB-ampicillin agar plates and incubated on a rotator overnight at 34 degrees C. […] Slides were rested for 2 to 5 minutes to allow the cells to settle before observation. Nonetheless, the cells were not tightly adherent to the slides and occasionally some cells moved slightly during imaging resulting in a double image. Cultures were checked and micrographs taken at 5 to 20 min intervals for up to 4 hours. Occasionally during this period, the culture tubes were briefly inserted into a Genesys 20 spectrophotometer (Thermospectronic, Rochester, NY) and the absorbance at 600 nm was recorded to measure culture density. The culture tubes have a circular cross section with an inside diameter of 1.3 cm, so the absorbances recorded were approximately 30% higher than would have been measured in a square cuvette with a one cm pathlength.
For preparation of the micrographs in FIGS. 1 through 3 comparing the morphology of the different transformed strains, each test culture (5 ml) was inoculated at the same time with 50 ul of the saturated overnight preculture. For display in the Figures, photographs taken after approximately the same period of growth of each of the parallel cultures were obtained when 20 μl samples provided a microscope image containing a broad sampling of the cell morphologies seen without overcrowding.
The lengths of the bacterial filaments were measured using the Image J program (NIH) with the dark field light micrographs. […] The longest dimension of each cell or filament was taken to represent the “length” for the analysis. Forty to 90 filaments were measured from each of the sub-images in FIGS. 1 and 2.

E. coli BL21(DE3) cells = experiment: electron microscopy of cells expressing wild type or mutant annexins A4; assay type: cell-based; conditions: 200 μg/ml ampicillin and 4 μg/ml piperacillin; FIG. 4
From the text: E. coli samples selected for ultrastructural analysis were processed for electron microscopy using technical support and instrumentation in the Advanced Microscopy Facility at the University of Virginia School of Medicine. The following reagents for electron microscopy were obtained from Electron Microscopy Sciences (Hatfield, PA): sodium cacodylate, propylene oxide, EPON, uranyl acetate, and lead citrate.
One ml samples of cell cultures were pelleted in a microcentrifuge and resuspended in 2.5% glutaraldehyde in 10 mM phosphate buffer (pH7.4) and held overnight at 4 degrees C. The cells were then washed in 0.1 M sodium cacodylate, 2 times, 10 minutes per wash. Then the samples were completely immersed in 1% osmium tetroxide (OsO4) in 0.1 M sodium cacodylate and incubated at room temperature for 1 hour. Following this incubation, the samples were rinsed in 0.1 M sodium cacodylate, 2 times, 10 minutes per wash. Next samples were dehydrated sequentially in 50%, 70%, 95%, 100% ethanol for at least 10 minutes each. Samples were then rinsed in 1:1 ethanol:propylene oxide and incubated for 10 min in the same mixture, then for 10 min in 100% propylene oxide. Following removal of the final propylene oxide, samples were incubated in a 1:1 propylene oxide:EPON mixture overnight, followed with 1:2 propylene oxide:EPON and 1:4 propylene oxide:EPON, 4 hours each. […]

[1] = system: bovine chromaffin granule (secretory vesicle) membrane; conditions: from Nelson and Creutz [17], Table 4; cited from earlier work
[2] = E. coli expressing construct, grown in ampicillin (200 μg/ml), FIG. 1
[3] = ampicillin (200 μg/ml) plus piperacillin (4 μg/ml), FIG. 2

CC1=C(C(=O)O)N2C(=O)[C@@H](NC(=O)[C@H](N)c3ccccc3)[C@H]2SC1 [cephalexin, reference compound]
propensity to promote the formation of long, stable filaments (E. coli strain BL21(DE3); compared with ampicillin and piperacillin): greatest propensity to promote the formation of long, stable filaments

B1: bovine annexin A4 (protein, UniProt P13214 2-319, looked up)
Annexin A4: AAKGGTVKAASGFNAAEDAQTLRKAMKGLGTDEDAIINVLAYRSTAQRQEIRTAYKTTIGRDLMDDLKSELSGNFEQVILGMMTPTVLYDVQELRKAMKGAGTDEGCLIEILASRTPEEIRRINQTYQLQYGRSLEDDIRSDTSFMFQRVLVSLSAGGRDESNYLDDALMRQDAQDLYEAGEKKWGTDEVKFLTVLCSRNRNHLLHVFDEYKRIAQKDIEQSIKSETSGSFEDALLAIVKCMRNKSAYFAERLYKSMKGLGTDDDTLIRVMVSRAEIDMLDIRANFKRLYGKSLYSFIKGDTSGDYRKVLLILCGGDD
AVG μm: average length of the measured filaments (E. coli strain BL21(DE3); [2]): 5.279 μm
MAX μm: length of the longest filament in the micrograph (E. coli strain BL21(DE3); [2]): 15.03 μm
optical density (A600) of the cultures with or without the annexin (E. coli strain BL21(DE3); ampicillin (200 μg/ml)): similar
promotion of cytokinesis (grouping of constructs) (E. coli strain BL21(DE3); ampicillin (200 μg/ml)): promoted cytokinesis
filament formation (E. coli strain BL21(DE3); ampicillin (200 μg/ml) plus cephalexin (25 μg/ml)): long filamentous cells were formed
promotion of cytokinesis (grouping of constructs) (E. coli strain BL21(DE3); ampicillin (200 μg/ml) plus piperacillin (4 μg/ml)): promoted cytokinesis
AVG μm: average length of the measured filaments (E. coli strain BL21(DE3); [3]): 5.052 μm
MAX μm: length of the longest filament in the micrograph (E. coli strain BL21(DE3); [3]): 9.472 μm
stability of the filaments after tenfold dilution of cephalexin (E. coli strain BL21(DE3); cephalexin reduced from 25 to 2.5 μg/ml after 3 hours 20 minutes, observed for two hours): completely stable
relative abundance of short cells and filamentous forms in electron micrographs (E. coli BL21(DE3) cells): number of short cells exceeds the number of extended filamentous forms
concentration of calcium leading to half-maximal binding to a biological membrane [1]: 5.0×10^−6 M
